Target: T1, Rad4 Δβ-hairpin3 crosslinking construct (<SC41B>);Rad23 (crystal) (Saccharomyces cerevisiae?;Saccharomyces …, UniProt P14736;P32628 101-632;230-398, V131C;C132S;del599-605|)
T1 sequence 1: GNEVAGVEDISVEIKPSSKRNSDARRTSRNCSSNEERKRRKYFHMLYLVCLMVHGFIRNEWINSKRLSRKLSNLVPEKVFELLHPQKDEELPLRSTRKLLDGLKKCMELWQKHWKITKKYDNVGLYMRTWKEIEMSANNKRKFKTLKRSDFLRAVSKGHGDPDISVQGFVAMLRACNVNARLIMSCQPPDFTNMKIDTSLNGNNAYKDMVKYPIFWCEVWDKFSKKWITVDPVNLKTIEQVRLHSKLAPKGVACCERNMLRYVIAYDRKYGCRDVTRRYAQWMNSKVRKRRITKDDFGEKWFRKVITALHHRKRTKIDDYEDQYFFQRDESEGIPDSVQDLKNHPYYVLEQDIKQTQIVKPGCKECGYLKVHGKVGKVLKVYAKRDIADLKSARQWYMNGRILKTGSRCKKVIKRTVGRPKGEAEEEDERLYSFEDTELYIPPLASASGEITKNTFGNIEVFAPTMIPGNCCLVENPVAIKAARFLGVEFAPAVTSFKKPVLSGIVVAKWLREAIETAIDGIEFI
T1 sequence 2: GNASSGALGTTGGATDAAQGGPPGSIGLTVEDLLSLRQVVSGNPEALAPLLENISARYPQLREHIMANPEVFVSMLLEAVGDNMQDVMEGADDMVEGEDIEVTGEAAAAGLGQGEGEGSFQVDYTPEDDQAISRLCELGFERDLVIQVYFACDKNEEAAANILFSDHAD
Experiment: X-ray crystallography

B1: CGC/GCG 23-bp crystal DNA (CH9c) (dsDNA)
DNA 1: TTGACTCGACATCGCGCGCTACA
DNA 2: ATGTAGCGCGCGATGTCGAGTCA
modifications: disulfide (cystamine)-tethered dG* at top strand position 8, from 2-F-dI
binding result: binds

— publication doi:10.1101/2020.01.16.909549
